Data reported in US20130158098A1, “Alkenyl Substituted Cycloaliphatic Compounds as Chemical Inducers of Proximity” (priority 2010, published 2013).

Biological target: VP16-PYLcs (VP16 transactivation domain fused to PYL1 aa 33-209) (herpes simplex virus; Arabidopsis thaliana) (UniProt Q8VZS8)
Assay: cell-based or functional assay

Chain of VP16-PYLcs (VP16 transactivation domain fused to PYL1 aa 33-209) (herpes simplex virus; Arabidopsis thaliana) (Q8VZS8 33-209 limits assumed): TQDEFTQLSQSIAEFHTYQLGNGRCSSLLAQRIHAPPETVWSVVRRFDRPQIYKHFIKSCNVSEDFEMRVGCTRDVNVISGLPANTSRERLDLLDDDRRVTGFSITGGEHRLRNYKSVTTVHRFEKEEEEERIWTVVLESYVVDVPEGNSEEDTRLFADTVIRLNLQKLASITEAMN

## Gal4 DBD-ABIcs, wild type (Gal4 DNA binding domain fused to ABI1 aa 126-423) (from UniProt P04386 1-147)
  luciferase production (UAS-luciferase reporter, murine ES, NIH 3T3 and HEK 293T cells): 1000 fold
